For 4 molecules, activity results are on record in patent US20230407276, “CRISPR-CAS EFFECTOR POLYPEPTIDES AND METHODS OF USE THEREOF” (The Regents of the University of California, published 2023).

Data set [1] has as its system DpbCasX dH2 Helical-II domain deleted. Description: cleavage_in_vitro. Conditions: NTS; 37 C, Mg2+; TS value 0.008223; unit assumed.
In data set [2] the test system is PlmCasX dH2 Helical-II domain deleted. Description: cleavage_in_vitro. Conditions: NTS; 37 C, Mg2+; TS value 1.741e-5; unit assumed.
In data set [3] the target is T1, DpbCasX (DpbCasXv1).
T1 chain: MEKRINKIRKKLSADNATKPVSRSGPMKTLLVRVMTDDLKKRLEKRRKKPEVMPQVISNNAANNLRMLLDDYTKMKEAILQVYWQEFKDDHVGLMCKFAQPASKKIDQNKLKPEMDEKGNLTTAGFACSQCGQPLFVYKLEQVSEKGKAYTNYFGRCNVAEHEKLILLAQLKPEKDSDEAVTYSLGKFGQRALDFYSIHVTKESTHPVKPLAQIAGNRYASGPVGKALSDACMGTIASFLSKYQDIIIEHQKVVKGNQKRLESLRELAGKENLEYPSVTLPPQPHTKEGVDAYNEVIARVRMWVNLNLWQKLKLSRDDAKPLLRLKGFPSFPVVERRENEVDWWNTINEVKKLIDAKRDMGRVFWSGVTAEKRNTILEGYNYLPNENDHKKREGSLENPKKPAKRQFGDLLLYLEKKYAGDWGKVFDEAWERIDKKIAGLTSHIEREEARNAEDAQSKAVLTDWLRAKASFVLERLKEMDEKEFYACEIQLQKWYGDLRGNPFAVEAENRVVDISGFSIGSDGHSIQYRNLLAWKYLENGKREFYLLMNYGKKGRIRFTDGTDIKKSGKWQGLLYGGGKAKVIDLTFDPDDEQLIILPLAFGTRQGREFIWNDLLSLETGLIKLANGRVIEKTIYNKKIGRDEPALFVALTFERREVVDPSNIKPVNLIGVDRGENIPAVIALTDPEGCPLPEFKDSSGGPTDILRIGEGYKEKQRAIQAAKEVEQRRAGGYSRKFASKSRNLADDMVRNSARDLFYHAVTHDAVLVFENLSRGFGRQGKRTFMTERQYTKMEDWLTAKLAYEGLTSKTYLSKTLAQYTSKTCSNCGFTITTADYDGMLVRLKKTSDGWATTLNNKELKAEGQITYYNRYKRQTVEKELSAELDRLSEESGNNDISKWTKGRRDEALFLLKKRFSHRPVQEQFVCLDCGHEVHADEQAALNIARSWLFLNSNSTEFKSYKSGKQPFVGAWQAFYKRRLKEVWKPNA
The experiment in a line: cleavage_in_vitro; NTS; 37 C, Mg2+. Particulars: label: 5'-32P. An excerpt:
(§1) FIG. 14A-14G. Updated design of the CasX sgRNA. […] The coverage axis denotes the number of sequencing reads. The abscissa denotes the genome sequence of the hypothetical tracrRNA region. (B) The structural details for sgRNAv1. The additional U at the 5′ end was hypothetically modeled in the top panel. The structural details of the G30-C54 base-paring region in sgRNAv1 are also shown in the bottom panel. […] The sgRNAv1-2 architecture is modeled based on sgRNAv1. The potential base-pairing between the additional 5′ U and A29 is labeled with a dashed line. The Helical-II domain was modeled to indicate the interaction interface with the sgRNA scaffold stem. (D) In vitro dsDNA cleavage activity comparison among different sgRNAs by DpbCasX and PlmCasX. The NTS was ³²P labeled on the 5′ end. (E) Cleavage kinetics analysis was based on the NTS band density from the cleaved fractions compared to the input NTS band density at the reaction time of 0 min (n=3, mean±s.d.) (DpbCasX-v2 from FIG. 15A). The fractions were collected from 0 min to 6 hrs. […] (F) The hypothetical secondary architectures of sgRNAv2 designs. […] The fractions were collected at 0 min, 10 mins, 20 mins, 40 mins, 1 hr, 2 hrs, 4 hrs and 6 hrs, respectively. OC/N indicates the open-circle or nicked plasmids, L indicates the linearized plasmids and SC indicates the super-coiled plasmids (n=3, representative gel shown).

The target of data set [4] is T2, PlmCasX (PlmCasXv1).
T2 chain: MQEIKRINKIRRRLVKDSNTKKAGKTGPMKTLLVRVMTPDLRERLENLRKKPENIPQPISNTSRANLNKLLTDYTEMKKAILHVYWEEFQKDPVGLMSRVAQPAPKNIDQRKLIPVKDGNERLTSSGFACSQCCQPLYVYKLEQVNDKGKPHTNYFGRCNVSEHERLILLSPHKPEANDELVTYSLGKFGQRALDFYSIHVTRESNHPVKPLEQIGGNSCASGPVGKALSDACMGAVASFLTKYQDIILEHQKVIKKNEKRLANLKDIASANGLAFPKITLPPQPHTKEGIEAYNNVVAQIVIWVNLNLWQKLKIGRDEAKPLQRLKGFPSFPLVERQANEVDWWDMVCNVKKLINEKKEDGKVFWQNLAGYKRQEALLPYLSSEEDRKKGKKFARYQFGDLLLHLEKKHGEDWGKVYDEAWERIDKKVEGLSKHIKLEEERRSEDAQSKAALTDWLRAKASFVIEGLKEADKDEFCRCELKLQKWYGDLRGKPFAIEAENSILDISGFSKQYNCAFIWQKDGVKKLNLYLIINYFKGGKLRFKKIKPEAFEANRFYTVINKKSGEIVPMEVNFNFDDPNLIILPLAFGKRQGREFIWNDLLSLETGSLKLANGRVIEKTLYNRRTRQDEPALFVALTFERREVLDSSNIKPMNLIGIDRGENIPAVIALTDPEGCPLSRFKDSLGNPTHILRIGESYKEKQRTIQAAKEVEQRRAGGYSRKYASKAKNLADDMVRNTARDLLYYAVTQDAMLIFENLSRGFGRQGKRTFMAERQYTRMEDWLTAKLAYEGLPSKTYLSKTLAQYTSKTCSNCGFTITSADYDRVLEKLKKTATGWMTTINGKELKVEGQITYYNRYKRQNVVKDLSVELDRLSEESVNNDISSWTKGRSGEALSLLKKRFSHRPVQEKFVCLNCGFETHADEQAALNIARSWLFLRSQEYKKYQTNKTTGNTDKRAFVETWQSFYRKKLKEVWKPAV
The experiment in a line: cleavage_in_vitro; NTS; 37 C, Mg2+. Conditions: label: 5'-32P.
From the text: as §1

Regarding “GGCGCGUUUAUUCCAUUACUUUGGAGCCAGUCCCAGCGACUAUGUCGUAUGGACGAAGCGCUUAUUUAUCGGAGAGAAACCGAUAAGUAAAACGCAUCAAAGUCCUGCAGCAGAAAAUCAAA / ATCGTTATACTTTGATTTTCTGCTGCAGGATGAAATCCCG / CGGGATTTCATCCTGCAGCAGAAAATCAAAGTATAACGAT [sgRNAv1 ; dsDNA target 40 bp]”, the activity in data set [1] is 0.00671 min⁻¹; in data set [2], 0.00268 min⁻¹.

B1: sgRNAv1-2 ; dsDNA target 40 bp (ssRNA ; dsDNA)
RNA: UGGCGCGUUUAUUCCAUUACUUUGGAGCCAGUCCCAGCGACUAUGUCGUAUGGACGAAGCGCUUAUUUAUCGGAGAGAAACCGAUAAGUAAAACGCAUCAAAGUCCUGCAGCAGAAAAUCAAAG
DNA 1: ATCGTTATACTTTGATTTTCTGCTGCAGGATGAAATCCCG
DNA 2: CGGGATTTCATCCTGCAGCAGAAAATCAAAGTATAACGAT
Regarding B1, the activity in data set [3] is 0.0109 k (unit not stated; min-1 inferred).

B2: sgRNAv2-3 ; dsDNA target 40 bp (ssRNA ; dsDNA)
RNA: UACUGGCGCUUUUAUCUCAUUACUUUGAGAGCCAUCACCAGCGACUAUGUCGUAUGGGUAAAGCGCUUAUUUAUCGGAGAAACCGAUAAAUAAGAAGCAUCAAAGUCCUGCAGCAGAAAAUCAAAG
DNA 1: B1 DNA 1
DNA 2: B1 DNA 2
On to B2, for which the activity in data set [4] was 0.0217 k (unit not stated; min-1 inferred).

B3: sgRNAv2-2 ; dsDNA target 40 bp (ssRNA ; dsDNA)
RNA: UGGCGCUUUUAUCUCAUUACUUUGAGAGCCAUCACCAGCGACUAUGUCGUAUGGGUAAAGCGCUUAUUUAUCGGAGAAACCGAUAAAUAAGAAGCAUCAAAGUCCUGCAGCAGAAAAUCAAAG
DNA 1: B1 DNA 1
DNA 2: B1 DNA 2
Take B3: the activity in data set [4] is 0.00919 k (unit not stated; min-1 inferred).
